Measurements reported in patent US20060275295A1 (published 2006).
Blank lines part the entries; values can stand above or below the binder they belong to.

Columns and labels:
[1] = target: T1, human THAP1 (THanatos-Associated Protein-1), full length (human, UniProt Q9NVV9 1-213); assay: yeast two-hybrid with THAP1 bait and GST pull-down with GST-THAP1
T1 construct: Used as Gal4-BD (pGBKT7) or Gal4-AD (pGADT7, pGAD424) fusion in yeast two-hybrid and as 35S-labelled in vitro translated protein (template pGBKT7-THAP1); also called hTHAP1; THAP1 wild type
T1 sequence: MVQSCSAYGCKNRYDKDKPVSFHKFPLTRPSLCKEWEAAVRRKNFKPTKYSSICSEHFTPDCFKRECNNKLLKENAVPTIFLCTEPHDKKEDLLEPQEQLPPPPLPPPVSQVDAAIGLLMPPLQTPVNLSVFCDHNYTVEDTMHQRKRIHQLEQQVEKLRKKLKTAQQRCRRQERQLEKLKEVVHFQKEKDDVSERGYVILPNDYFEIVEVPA

[2] = target: T1, human THAP1 (THanatos-Associated …); assay: yeast two-hybrid, AH109, His/Ade selection
Description: 285) and CXCL10-2 (5′-[…]-3′) (SEQ ID NO. 286), No. 2403734 (IFNγ) with primers IFN-1 (5′-[…]-3′) (SEQ ID NO: 287) and IFN-2 (5′-[…]-3′) (SEQ ID NO: 288). The PCR products were digested with EcoRI and BamHI, and cloned between EcoRI and BamHI cloning sites of vector pGBKT7 (Clontech).

[3] = target: T2, GFP-THAP1 fusion protein (pEGFP.C2-THAP1) (human, UniProt Q5RCE4 1-213 (Pongo abelii entry)); assay: in vivo interaction assay: co-transfection in primary human endothelial cells, confocal microscopy
T2 construct: Expressed in transfected primary human endothelial cells (HUVEC); not shown: Enhanced Green Fluorescent Protein (EGFP) of pEGFP.C2 (Clontech), N-terminal
T2 sequence: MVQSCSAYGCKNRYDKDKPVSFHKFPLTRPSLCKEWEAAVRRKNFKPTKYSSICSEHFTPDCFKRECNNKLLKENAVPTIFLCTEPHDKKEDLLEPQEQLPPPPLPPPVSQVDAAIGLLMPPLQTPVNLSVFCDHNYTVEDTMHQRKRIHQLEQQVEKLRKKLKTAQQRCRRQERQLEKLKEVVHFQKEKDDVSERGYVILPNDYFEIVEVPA
Description: To provide further evidence for a physiological interaction between THAP1 and Par4 in vivo interactions between THAP1 and PAR4 were investigated. For that purpose, confocal immunofluorescence microscopy was used to analyze the subcellular localization of epitope-tagged Par4DD in primary human endothelial cells transiently cotransfected with pEF-mycPar4DD eukaryotic expression vector and GFP or GFP-THAP1 expression vectors (pEGFP.C2 and pEGFP.C2-THAP1, respectively). To generate pEF-mycPar4DD, mycPar4DD (amino acids 250-342) was amplified by PCR using pGBKT7-Par4DD as template, with primers myc.BD7 (5′-[…]-3′) (SEQ ID NO: 195) and Par4.9 (5′-[…]-3′) (SEQ ID NO: 196), and cloned into the XbaI and NotI sites of the pEF-BOS expression vector (Mizushima and Nagata, Nucleic Acids Research, 18:5322, 1990). Primary human endothelial cells from umbilical vein (HUVEC, PromoCell, Heidelberg, Germany) were grown in complete ECGM medium (PromoCell, Heidelberg, Germany), plated on coverslips and transiently transfected in RPMI medium using GeneJammer transfection reagent according to manufacturer instructions (Stratagene, La Jolla, Calif., USA). […] Cells were then washed three times 5 min at room temperature in PBS-BSA, and incubated for 1 hr with Cy3 (red fluorescence)-conjugated goat anti-mouse (1/1000, Amersham Pharmacia Biotech) secondary antibodies, diluted in PBS-BSA. […]

binding result [1]: binds
B1: SLC/CCL21ΔCOOH (SLC/CCL21 deletion mutant lacking the basic carboxy-terminal extension, amino acids 102-134) (ligand)
chain: SDGGAQDCCLKYSQRKIPAKVVRSYRKQEPSLGCSIPAILFLPRKRSQAELCADPKELWVQQLMQHLDKTPSPQKPAQG
notes: The BamHI-PstI fragment is said to encode SLC amino acids 24-102

binding result [2]: binds
B2: human chemokine CXCL9, mature form (amino acids 23-125) (ligand)
chain: TPVVRKGRCSCISTNQGTIHLQSLKDLKQFAPSPSCEKIEIIATLKNGVQTCLNPDSADVKELIKKWEKQVSQKKKQKNGKKHQKKKVLKVRKSQRSRQKKTT
notes: Gal4 fusion in yeast or in vitro translated (pGBKT7 or pGADT7 template); tags not built in; also called MIG/CXCL9; MIG

binding result [3]: binds
B3: myc-Par4DD (epitope-tagged Par4DD, amino acids 250-342, pEF-mycPar4DD) (other, not shown: small tags and cut ends)
chain: GFPRYNRDANVSGTLVSSSTLEKKIEDLEKEVVTERQENLRLVRLMQDKEEMIGKLKEEIDLLNRDLDDIEDENEQLKQENKTLLKVVGQLTR
notes: Expressed in transfected primary human endothelial cells (HUVEC)
